Ends that are not written are not given here.
Columns and labels:
PCNA [1] = target: T1, PCNA (Homo sapiens, UniProt P12004); assay: Peptide precipitation of PCNA from HeLa cell lysate, PC10 Western blot; assay type: binding; set-up: HeLa cell lysate was added to the washed beads to a final protein concentration of 1 mg/ml; endogenous in cells; host or cells: HeLa; conditions: 2.7 μg peptide on beads; HeLa lysate 1 mg/ml; PC10 immunoblot
Procedure: Twenty amino acid peptides with 15 amino acid overlaps were synthesized (Chiron Mimotopes, Australia) across the 89 amino acids from the C-terminal region of Fen1 identified in the two hybrid screen as the PCNA binding site on Fen1. These peptides were linked via residues SGSG (SEQ ID NO:3) at the amino acid terminus to biotin. 2.7 μg of each peptide was incubated with 10 μl streptavidin agarose beads (Sigma) in phosphate buffered saline (PBS) for 1 hour at room temperature (r.t.) then beads were washed extensively in PBS and recovered each time by centrifugation at 11,600 g. HeLa cell lysate was added to the washed beads to a final protein concentration of 1 mg/ml and incubated with the beads on ice for 1 hour. Beads were extensively washed in PBS with 220 mM NaCl, then bound proteins removed by boiling for 8 minutes in SDS loading buffer with 0.2 M DTT. Proteins were separated on 10% SDS-PAGE then electrophoretically transferred to nitrocellulose. Blots were blocked then incubated for 1 hour r.t. with PC 10 hybridoma supernatant (Waseem & Lane, 1990) diluted 1:5 in DMEM with 10% FCS. After washing, secondary HRP-conjugated anti-mouse IgG serum at 1:1000 in 2% non-fat milk-PBS-0.2% Tween was added for 1 hour at r.t. Bound antibody was visualised using the ECL system according to the manufacturer's instructions (Amersham plc.)
To map precisely the residues of Fen1 to which PCNA binds, a series of biotinylated 20 amino acids peptides (with 15 amino acid overlaps) were synthesized representing the region of Fen1 found to interact with PCNA in the two hybrid screen (FIG. 1). Fen1 peptides (bound to streptavidin agarose beads) were incubated with human HeLa cell extracts, then beads were precipitated and bound protein analysed on immunoblots probed with monoclonal anti-PCNA antibody PC10 (Waseen & Lane, 1990).
The region of human Fen1 recognised by PCNA in the precipitation assay contains a motif highly conserved in the Fen1 family. We examined whether human PCNA could bind to his motif in the yeast homologues of Fen1, S. pombe rad2 and […]/YKL510. […]

PCNA [2] = target: T1, PCNA; assay: Competitive ELISA: PCNA binding to immobilised FenPBP (peptide 84); set-up: made in house; used as unpurified lysate; conditions: non-biotinylated 9-mer, FIG. 4
Procedure: Biotinylated FenPBP (peptide 84 (SEQ ID NO:4)—see FIG. 2) was immobilised on ELISA dishes pre-coated with streptavidin. Bacterial cell lysate overexpressing recombinant human PCNA was mixed with increasing amounts of a non-biotinylated 9 amino acid peptide QTSMTDFYH (SEQ ID NO:2) derived from p21PBP (Warbrick et al., 1995), then binding of PCNA to the immobilised FenPBP was measured using polyclonal antibody 3009 against PCNA, followed by HRP-anti-rabbit antibody,and calorimetric detection at 450 nm.
ELISA plates were coated overnight at 37° C. with 100 ng of streptavidin per well. Plates were blocked with 5% non-fat milk powder in PBS, washed extensively with PBS containing 0.2% Tween 20 (PBS-T) then 100 μl FenPBP—peptide 84 (SEQ ID NO:4) (see FIG. 2)—at 10 μg/ml was added to each well. Following 1 hour incubation at r.t. in a humid chamber, wells were washed extensively. Approximately 3.5 μg total protein containing overexpressed recombinant human PCNA was mixed with varying concentrations of a 9 amino acid peptide derived from p21PBP (Warbrick et al, 1995), of the sequence QTSMTDFYH (SEQ ID NO:2) (purified by HPLC and verified by mass spectrometry) and applied to the wells for 1 hour at r.t. After extensive washing, anti-PCNA polyclonal antibody 3009 (Cox et al., manuscript in preparation) was added at 1:1000, followed by HRP-conjugated anti-rabbit IgG serum at 1:1000, and bound antibody was visualized by the TMB colormetric procedure (Harlow & Lane, 1998). Plated were read at 450 nm using a Dynatech 5000 plate reader.
Since the region of PCNA bound by Fen1 is the same as that recognised by p21^Cip1, and the motif of Fen1 required for PCNA interaction appears homologous to the critical residues of p21PBP (Warbrick et al., 1995), it is highly possible that Fen1 and p21^Cip1 might compete for binding to PCNA. We therefore tested this hypothesis using PCNA-interacting peptide 84 (SEQ ID NO:4) of Fen1 (dubbed Fen1PBP for Fen1-PCNA binding peptide) immobilised in ELISA wells. […]

T1 sequence (P12004 whole entry): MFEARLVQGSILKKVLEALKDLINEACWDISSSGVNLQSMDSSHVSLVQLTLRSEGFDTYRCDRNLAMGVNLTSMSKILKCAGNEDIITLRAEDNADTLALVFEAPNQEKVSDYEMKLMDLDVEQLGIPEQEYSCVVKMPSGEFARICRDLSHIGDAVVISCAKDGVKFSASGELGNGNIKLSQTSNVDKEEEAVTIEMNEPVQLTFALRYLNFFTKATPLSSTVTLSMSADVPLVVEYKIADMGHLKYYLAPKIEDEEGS

| PCNA precipitated from HeLa cell extract by biotinylated peptide on streptavidin agarose beads (PCNA [1]) | Concentration of added peptide giving total displacement of PCNA from immobilised Fen1PBP (PCNA [2]; immobilised Fen1PBP) [mM] | Concentration of peptide that completely prevented PCNA binding to Fen1PBP (approximate molar) (PCNA [2]; immobilised biotinylated FenPBP) | Concentration of peptide that completely prevented PCNA binding to Fen1PBP (PCNA [2]; immobilised biotinylated FenPBP, antibody 3009, read at 450 nm) [µg/mL] | Substance |
| --- | --- | --- | --- | --- |
| equal efficiency | – | – | – | 85: Biotinylated 20 amino acid peptide of the human Fen1 C-terminal region containing TQGRLDDFFK (SGSGSRQGSTQGRLDDFFKVTGSL; also: biotinylated) [compound 85] |
| equal efficiency | – | – | – | 86: Biotinylated 20 amino acid peptide of the human Fen1 C-terminal region containing TQGRLDDFFK (SGSGTQGRLDDFFKVTGSLSSAKR; also: biotinylated) [compound 86] |
| – | 1 | approximately 1 μM | 1 | QTSMTDFYH [Non-biotinylated 9 amino acid peptide derived from p21PBP (Warbrick et al., 1995)] |
| equal efficiency | – | – | – | peptide 84: Biotinylated (SGSG-linked) 20 amino acid peptide of the human Fen1 C-terminal region containing TQGRLDDFFK; Fen1-PCNA binding peptide (SGSGKRLSKSRQGSTQGRLDDFFK; also: biotinylated, site not given here) |
